T1: CXCL1_HUMAN (Homo sapiens, UniProt P09341)
T1 sequence (P09341 35-107): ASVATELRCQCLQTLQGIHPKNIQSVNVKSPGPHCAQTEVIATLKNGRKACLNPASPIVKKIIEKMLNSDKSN

T2: CXCL10_HUMAN (Homo sapiens, UniProt P02778)
T2 sequence (P02778 22-98): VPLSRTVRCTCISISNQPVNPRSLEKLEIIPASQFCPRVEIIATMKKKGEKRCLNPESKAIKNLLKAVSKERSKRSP


Target: T1, CXCL1_HUMAN
Test: Yeast surface display (YSD) FACS binding
Set-up: label (chemical)
Details: FACS re-test; mean percent shift where several clones
Method: (§1) Table 1. Tick CKBPs described in PCT/GB2017/050563 and [17]. Tick peptide sequences isolated in yeast surface display fluorescent-activated cell sorting (FACS) screens using a labelled chemokine. Identity with Evasin-1, 4 or 3 was calculated using BLAST. Abbreviations: IXORI—Ixodes ricinus, RHISA—Rhipicephalus sanguineus, AMBMA—Amblyomma maculatum, AMBPA—Amblyomma parvum, AMBTR—Amblyomma triste, AMBAM—Amblyomma americanum, AMBCA—Amblyomma cajennense, RHIPU—Rhipicephalus pulchellus. Table 2A-C. Binding characteristics of tick CKBPs previously disclosed (PCT/GB2017/050563 and [17]). All members of the human chemokine family[164] are listed in column 1. Binding to human chemokines was determined for 14 tick CKBPs using biolayer interferometry (BLI) with calculated Kd shown as Molar (Moles/Litre). Binding data for 17 other novel tick CKBPs was assayed using yeast surface display[17,166],with positive binding results shown as “YES”. For biolayer interferometry, His-tagged purified tick CKBP was bound to a Ni-NINTA sensor on an OctetRed® 384 system, and then binding to each chemokine listed (with the exception of CCL25, CCL26, CXCL16, CXCL17, CXCL4L1, XCL2) was assayed in a cross-binding screen at a chemokine concentration of 300 nM as described. For those chemokines showing binding to a tick CKBP in the cross-binding screen, binding assays were repeated using different doses of chemokine. Association, equilibrium and dissociation data were analysed using Octet software to create corresponding fitted curves, and used to calculate Kd. For yeast surface display, (YSD) background fluorescence was controlled for by using either an empty vector or by omitting the chemokine (i.e. using streptavidin-Alexa647 alone). An arbitrary threshold of >3 fold over background mean fluorescence intensity was chosen to describe confirmed re-tests. Where binding was detected data are indicated as “YES”. […] For yeast surface display data, empty cells represent chemokines that were not tested. Binding data published in relation to previously described tick CKBPs (Evasins-1, 4 and 3) is also shown for comparison in each of FIGS. 2A-C, with the relevant data obtained from publications: [20-22,32]. Table 3: Neutralisation of human chemokines by tick CKBPs previously disclosed (PCT/GB2017/050563 and [17]). Neutralising activity was determined using a quantitative THP1 cell migration assay in a 96-well Boyden chamber with chemokine in the bottom chamber as described. Cells migrating through to the bottom chamber at 4 hours were counted using flow cytometry in a 96 well plate format. IC50 for neutralisation was determined at the chemokine EC80 dose as determined using a range of tick CKBP concentrations. Data was analysed using GraphPad Prism to determine IC50, which is shown as Molar (Moles/Litre). Empty cells represent experiments not done. Table 4—Other previously described tick CKBPs. Tick CKBPs that were also described in PCT/GB2017/050563 and Singh et al. are indicated in “Notes”. Table 5.—Novel tick CKBPs of the invention. Table 6. […] The peptide sequence prefix indicates the identity, and suffix indicate the tick species as follows: AMBCA, Amblyomma cajennense and IXORI, Ixodes ricinus. […] Certain tick peptides e.g. P1074_IXORI were recovered from screens performed with more than one chemokine. Individual yeast clones recovered from the library were re-tested using a FACS (fluorescence activated cell sorting), experiment. The binding of the peptide to the chemokine was assayed by measuring the percent (%), of yeast cells expressing the given peptide that exceeded a background threshold set by measuring the fluorescence of the yeast library pool treated with streptavidin-[…] alone. When more than one independent yeast clone was isolated for a given peptide-chemokine combination, the mean percent shift was calculated and reported in column 3. […]

Molecule | Chemokines bound in yeast surface display and % cells over threshold fluorescence: CXCL1_HUMAN
P1077_IXORI: novel CXC-binding tick CKBP, Ixodes ricinus (protein, listed as Ixodes ricinus) GSKQLIGPQSSTNSIKAEFCDTNCTAGTNGIWNGCSGDCFCTHVGNSTEGRCMKITGFDEYPTSEAEE | CXCL1_HUMAN 50%
P1104_IXORI: novel CXC-binding tick CKBP, Ixodes ricinus (protein, listed as Ixodes ricinus) ESKEASASQGPGKSFKVEFCETNCTENNGVWSGCTGDCICVSVGDSKEGRCMDLGDKVIDTPVAQG | CXCL1_HUMAN 65%
P1132_IXORI: novel CXC-binding tick CKBP, Ixodes ricinus (protein, listed as Ixodes ricinus) LSDEDELFSVEYCGTNCTKQDTGSWTTCSGNCTCYHEDGKKVGLCLSTEYTDFTKFPKPTSEEIANARPLPKREKTLN | CXCL1_HUMAN 68%
P1162_IXORI: novel CXC-binding tick CKBP, Ixodes ricinus (protein, listed as Ixodes ricinus) LNDEELFTVDYCGTNCTQQPNGSWTTCPGNCSCYHEDGKTDGFCLSTEYTDFTQFPNLTSEEMDAATPRPE | CXCL1_HUMAN 72%
P1166_IXORI: novel CXC-binding tick CKBP, Ixodes ricinus (protein, listed as Ixodes ricinus) GPETKEDKKSDVYELFTVEYCGTNCTLLTNGRWTACTGKKGTCRCYHESGEKVGLCLSTEYTDFSEYPNPKSSEIDAAAPLPRETH | CXCL1_HUMAN 63%
P1229_IXORI: novel CXC-binding tick CKBP, Ixodes ricinus (protein, listed as Ixodes ricinus) DDEFFTVDYCGMNCTLQQDGSWTPCTQKNAECKCYHESGSSVGLCLSTAYTDFNQFGDPNNSDLDAATPRHPDASSR | CXCL1_HUMAN 66%

Target: T2, CXCL10_HUMAN
Test: Yeast surface display (YSD) FACS binding
Details: FACS re-test; mean percent shift where several clones
Method: as §1

Molecule | Chemokines bound in yeast surface display and % cells over threshold fluorescence: CXCL10_HUMAN
P1096_IXORI: novel CXC-binding tick CKBP, Ixodes ricinus (protein, listed as Ixodes ricinus) HTTVTGSVEGKPNNPNEDIEVSYCRMNCTVENGVSSACSGDCVCVHRDNEPNGICVEITYFGDFGDPSQDPSIDEAAPRESVSKRRSNGES | CXCL10_HUMAN 50%
P1101_IXORI: novel CXC-binding tick CKBP, Ixodes ricinus (protein, listed as Ixodes ricinus) HTTVAGSDEDIEVSYCGMNCTVESGKSSKCSPDCVCVHEGNERDGICISITYLGDLGNPLEDPSIDLATPLAPVFQSSK | CXCL10_HUMAN 75%
P1134_IXORI: novel CXC-binding tick CKBP, Ixodes ricinus (protein, listed as Ixodes ricinus) NEEVFTVEYCGMNCTQKSDGTWTECSGKNKDCRCYHESDAREGLCLSTEYTDFSQFETPSNSDLEAATPRPRKTLYPVRNPHGPKTRGLGYDKRILRDRVKFLI | CXCL10_HUMAN 66%

Target: CXCL12_HUMAN (Homo sapiens, UniProt P48061)
Sequence (P48061 22-93): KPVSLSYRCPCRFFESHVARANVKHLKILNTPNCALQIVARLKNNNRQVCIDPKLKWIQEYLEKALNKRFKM
Test: Yeast surface display (YSD) FACS binding
Details: FACS re-test; mean percent shift where several clones
Method: as §1

Molecule | Chemokines bound in yeast surface display and % cells over threshold fluorescence: CXCL12_HUMAN
P1095_IXORI: novel CXC-binding tick CKBP, Ixodes ricinus (protein, listed as Ixodes ricinus) HSPVAGSEVQKLTSDPNDDIDVSYCGMNCTVVNGKSDECSENCKCLHEGDDPKGICVAITYFGDWGDPNDDPKINEATPQTQIFEKKRK | CXCL12_HUMAN 47%

From patent US20200247855A1, “THERAPY AND DIAGNOSTICS” (OXFORD UNIVERSITY INNOVATION LIMITED, priority 2017, published 2020)
